Data as given in article PMC7969032, “Tandem RNA binding sites induce self-association of the stress granule marker protein TIA-1”.

T1: TIA-1 full length (short isoform, p40) (human, UniProt P31483-2 1-375)
T1 sequence: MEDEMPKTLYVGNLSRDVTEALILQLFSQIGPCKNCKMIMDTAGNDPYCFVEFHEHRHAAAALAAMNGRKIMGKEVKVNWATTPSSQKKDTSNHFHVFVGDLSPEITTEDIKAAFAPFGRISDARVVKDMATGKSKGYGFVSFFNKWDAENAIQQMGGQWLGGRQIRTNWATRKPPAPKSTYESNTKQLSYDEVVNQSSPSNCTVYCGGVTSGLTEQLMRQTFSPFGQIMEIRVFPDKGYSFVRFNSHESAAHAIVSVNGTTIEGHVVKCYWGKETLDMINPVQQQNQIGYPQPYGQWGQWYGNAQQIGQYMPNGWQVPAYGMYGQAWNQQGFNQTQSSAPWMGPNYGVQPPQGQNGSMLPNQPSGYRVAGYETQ

B1: TC2 (ssDNA)
DNA: TTTTTACTCCAATTTTTACTCC
B2: TC7 (ssDNA)
DNA: TTTTTACTCCAATTTTTACTCCAATTTTTACTCCAATTTTTACTCCAATTTTTACTCCAATTTTTACTCCAATTTTTACTCC
B3: TC1 (5'-fluorescein) (ssDNA)
DNA: TTTTTACTCC
B4: UC1 (ssRNA)
RNA: UUUUUACUCC
B5: TC5 (ssDNA)
DNA: TTTTTACTCCAATTTTTACTCCAATTTTTACTCCAATTTTTACTCCAATTTTTACTCC
B6: TC9 (ssDNA)
DNA: TTTTTACTCCAATTTTTACTCCAATTTTTACTCCAATTTTTACTCCAATTTTTACTCCAATTTTTACTCCAATTTTTACTCCAATTTTTACTCCAATTTTTACTCC
B7: TC1 (ssDNA)
DNA: TTTTTACTCC
B8: TC3 (ssDNA)
DNA: TTTTTACTCCAATTTTTACTCCAATTTTTACTCC

Legend:
[1] = molecular target: T1, TIA-1 full length (short isoform, p40); test: co-sedimentation with condensed phase (PAGE); 4:1 TIA-1:TC site, 10 uM TIA-1; FA: 1 nM Fl-TC1; RRM23 in 10 mM HEPES pH 7.2, 50 mM NaCl, 1 mM DTT (legend: 20 mM HEPES); full-length TIA-1 in 20 mM sodium phosphate, 60 mM KCl, 0.5 M arginine-HCl, 1 mM MgCl2, 2 mM DTT, 0.5 mM EDTA, pH 7; Csat at room temperature; conditions: protein: recombinant; tags: His-tag removed by TEV (untagged)
[2] = molecular target: T1, TIA-1 full length (short isoform, p40); test: fluorescence anisotropy; 0.5 M arginine-HCl, 60 mM KCl, 1 mM MgCl2; KD not in text; FA: 1 nM Fl-TC1; RRM23 in 10 mM HEPES pH 7.2, 50 mM NaCl, 1 mM DTT (legend: 20 mM HEPES); full-length TIA-1 in 20 mM sodium phosphate, 60 mM KCl, 0.5 M arginine-HCl, 1 mM MgCl2, 2 mM DTT, 0.5 mM EDTA, pH 7; Csat at room temperature; conditions: protein: recombinant; tags: His-tag removed by TEV (untagged); label: 5'-fluorescein
[3] = molecular target: T1, TIA-1 full length (short isoform, p40); test: SAXS; 500 mM arginine; SASDJL5; FA: 1 nM Fl-TC1; RRM23 in 10 mM HEPES pH 7.2, 50 mM NaCl, 1 mM DTT (legend: 20 mM HEPES); full-length TIA-1 in 20 mM sodium phosphate, 60 mM KCl, 0.5 M arginine-HCl, 1 mM MgCl2, 2 mM DTT, 0.5 mM EDTA, pH 7; Csat at room temperature; conditions: protein: recombinant; tags: His-tag removed by TEV (untagged)
[4] = molecular target: T1, TIA-1 full length (short isoform, p40); test: SAXS; 500 mM arginine; SASDJK5; FA: 1 nM Fl-TC1; RRM23 in 10 mM HEPES pH 7.2, 50 mM NaCl, 1 mM DTT (legend: 20 mM HEPES); full-length TIA-1 in 20 mM sodium phosphate, 60 mM KCl, 0.5 M arginine-HCl, 1 mM MgCl2, 2 mM DTT, 0.5 mM EDTA, pH 7; Csat at room temperature; conditions: protein: recombinant; tags: His-tag removed by TEV (untagged)

Row | Binder | binding result [1] | also measured
1 | B1 | binds | 
2 | B2 | binds | 
3 | B3 |  | binding result [2]: binds
4 | B4 |  | binding result [3]: binds
5 | B5 | binds | 
6 | B6 | binds | 
7 | B7 |  | binding result [4]: binds
8 | B8 | binds | 
